{"source": "paper PMC4837482", "about": "“The complex binding mode of the peptide hormone H2 relaxin to its receptor RXFP1” (Nature Communications, 2016)", "assay_in_all_cases": "cAMP activity assay (pCRE β-galactosidase reporter), transfected HEK293T cells", "assay_type_in_all_cases": "cell-based", "key": {"[1]": {"molecular_target": "T1, RXFP1 D51A (Homo sapiens, UniProt Q9HBX9, D51A/D73A)", "T1 construct": "cells expressing full-length RXFP1 and mutants; expressed in transfected cells; host or cells: HEK293T", "T1 sequence (Q9HBX9 23-757 D51A/D73A limits assumed)": "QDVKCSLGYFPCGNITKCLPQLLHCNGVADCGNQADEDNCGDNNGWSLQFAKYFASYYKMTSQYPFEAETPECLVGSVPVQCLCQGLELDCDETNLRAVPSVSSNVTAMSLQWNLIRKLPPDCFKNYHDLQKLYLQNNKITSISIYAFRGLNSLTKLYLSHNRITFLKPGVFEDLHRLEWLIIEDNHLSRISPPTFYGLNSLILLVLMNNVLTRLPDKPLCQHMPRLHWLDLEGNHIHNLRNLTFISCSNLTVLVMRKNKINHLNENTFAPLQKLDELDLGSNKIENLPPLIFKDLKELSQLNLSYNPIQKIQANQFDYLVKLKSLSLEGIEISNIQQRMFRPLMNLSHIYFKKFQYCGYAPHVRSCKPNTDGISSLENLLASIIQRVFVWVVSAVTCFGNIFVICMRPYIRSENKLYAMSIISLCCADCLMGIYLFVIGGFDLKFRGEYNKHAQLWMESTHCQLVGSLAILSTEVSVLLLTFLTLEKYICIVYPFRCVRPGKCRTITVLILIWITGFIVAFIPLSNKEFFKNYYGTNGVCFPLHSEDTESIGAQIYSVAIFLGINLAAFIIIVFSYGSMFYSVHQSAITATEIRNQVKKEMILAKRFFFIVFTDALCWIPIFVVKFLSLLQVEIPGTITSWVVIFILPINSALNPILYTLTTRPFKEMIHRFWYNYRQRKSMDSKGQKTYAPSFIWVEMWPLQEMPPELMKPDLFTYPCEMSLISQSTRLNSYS", "details": "construct D51A, ±s.e.m.", "in_short": "(§1)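 HEK293T cells transfected with mutant RXFP1 and pCRE β-galactosidase reporter, stimulated with H2 relaxin in minimal media/1% DMSO. β-Galactosidase read with chlorophenol red-β-D-galactopyranoside at 570 nm; responses pooled from ≥3 triplicate experiments as % of 5 μM forskolin maximum.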"}, "[2]": {"molecular_target": "T2, RXFP1 F66A (Homo sapiens, UniProt Q9HBX9, F88A)", "T2 construct": "cells expressing full-length RXFP1 and mutants; expressed in transfected cells; host or cells: HEK293T", "T2 sequence (Q9HBX9 23-757 F88A limits assumed)": "T1 sequence (Q9HBX9 23-757 D51A/D73A limits assumed) with A29D, A51D, F66A", "details": "construct F66A, ±s.e.m.", "in_short": "as §1"}, "[3]": {"molecular_target": "T3, RXFP1 Y58A (Homo sapiens, UniProt Q9HBX9, Y80A)", "T3 construct": "cells expressing full-length RXFP1 and mutants; expressed in transfected cells; host or cells: HEK293T", "T3 sequence (Q9HBX9 23-757 Y80A limits assumed)": "T1 sequence (Q9HBX9 23-757 D51A/D73A limits assumed) with A29D, A51D, Y58A", "details": "construct Y58A, ±s.e.m.", "in_short": "as §1"}, "[4]": {"details": "percentage of maximum response to 5 μM Forskolin"}}, "note": "Where a chain is given by its changes, count along the chain named.", "data": [{"substance": "H2 relaxin: two-chain 6-kDa peptide hormone structurally related to insulin; recombinant human gene-2 H2 relaxin provided by Corthera", "values": [{"measurement": "H2 relaxin pEC50", "setting": "[1]; cAMP reporter", "value": "11.01±0.56 (3)"}, {"measurement": "H2 relaxin Emax", "setting": "[1]; [4]", "value": "96.5±4.0 (3) %"}, {"measurement": "H2 relaxin pEC50", "setting": "[2]; cAMP reporter", "value": "11.20±0.08"}, {"measurement": "H2 relaxin Emax", "setting": "[2]; [4]", "value": "88.29±3.52 (3) %"}, {"measurement": "H2 relaxin pEC50", "setting": "[3]; cAMP reporter", "value": "10.88±0.09 (3)"}, {"measurement": "H2 relaxin Emax", "setting": "[3]; [4]", "value": "89.14±7.93 (3) %"}]}]}
